Assay results reported in US20190352423A1 (Genmab, published 2019).

T1: recombinant human CD63 second extracellular domain (Ala 103-Val 203) fused with a polyhistidine tag at the … (human, UniProt P08962 103-203)
T1 construct: range 103-203; Bought from Creative BioMart; also called human His-tagged CD63; soluble CD63
T1 sequence (looked up): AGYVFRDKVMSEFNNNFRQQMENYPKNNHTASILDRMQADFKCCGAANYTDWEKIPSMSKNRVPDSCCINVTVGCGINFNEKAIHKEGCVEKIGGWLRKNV


target: T1, recombinant human CD63 second …; test: BLI (Octet HTX), IgG on anti-human Fc sensors, His-tagged CD63 as analyte, 30 C
Procedure: Association and dissociation kinetics of human His-tagged CD63 (100 nM, 50 nM, 25 nM and 12.5 nM, concentrations were calculated using the predicted molecular weight of 13 kDa) were determined in Sample Diluent (ForteBio), using an association time of 1000 s, a dissociation time of 2000 s and a shaker speed of 1000 rpm at 30° C. Data traces were corrected using a reference sensor exposed to Sample Diluent only during the association and dissociation steps, the Y-axis was aligned to baseline and Inter-step correction as well as Savitzky-Golay filtering were applied. The association rate constant Kₒₙ (1/Ms), dissociation rate constant Kdis (1/s) and equilibrium dissociation constant KD (M) were determined with ForteBio Data Analysis Software v8.1, using the 1:1 model and a global full fit.

Binder | Kd [nM] | koff [s⁻¹] | kon [M⁻¹ s⁻¹]
wild type IgG1-CD63 (antibody, V domains shown, Mouse 2192 variable domains on human IgG1 constant domains (heavy chain with K409R or F405L) and a human light chain constant domain; also called wt IgG1-CD63; WT) VH: EVQLQQSGPELVKPGASVKMSCKASGYTFTSYVMHWVRQTPGQGLEWIGYITPYNDGTKYNEKFKGKATLTSDKSSSTAYMELSSLTSEDSAVYYCVGGDNYYYAMDYWGQGTSVTVSA VL: NIMVTQSPSSLAVSAGEKVTMSCKSSQSVLYSSNQKNYLAWYQQKPGQSPKLLIYWASTRVSGVPDRFTGSGSGTDFTLTISRVQAEDLAVYYCHQYFSSFTFGSGTKLEIKR | 0.54 | 0.00011 | 200000
IgG1-CD63 affinity variant P72H (antibody, V domains shown) VH: EVQLQQSGPELVKPGASVKMSCKASGYTFTSYVMHWVRQTPGQGLEWIGYITHYNDGTKYNEKFKGKATLTSDKSSSTAYMELSSLTSEDSAVYYCVGGDNYYYAMDYWGQGTSVTVSA VL: NIMVTQSPSSLAVSAGEKVTMSCKSSQSVLYSSNQKNYLAWYQQKPGQSPKLLIYWASTRVSGVPDRFTGSGSGTDFTLTISRVQAEDLAVYYCHQYFSSFTFGSGTKLEIKR | 3.3 | 0.00057 | 170000
IgG1-CD63 affinity variant Y79H (antibody, V domains shown, As m1 with one histidine substitution) VH: EVQLQQSGPELVKPGASVKMSCKASGYTFTSYVMHWVRQTPGQGLEWIGYITPYNDGTKHNEKFKGKATLTSDKSSSTAYMELSSLTSEDSAVYYCVGGDNYYYAMDYWGQGTSVTVSA VL: NIMVTQSPSSLAVSAGEKVTMSCKSSQSVLYSSNQKNYLAWYQQKPGQSPKLLIYWASTRVSGVPDRFTGSGSGTDFTLTISRVQAEDLAVYYCHQYFSSFTFGSGTKLEIKR | 0.67 | 0.00014 | 210000
IgG1-CD63 affinity variant Y121H (antibody, V domains shown, As m1 with one histidine substitution) VH: EVQLQQSGPELVKPGASVKMSCKASGYTFTSYVMHWVRQTPGQGLEWIGYITPYNDGTKYNEKFKGKATLTSDKSSSTAYMELSSLTSEDSAVYYCVGGDNHYYAMDYWGQGTSVTVSA VL: NIMVTQSPSSLAVSAGEKVTMSCKSSQSVLYSSNQKNYLAWYQQKPGQSPKLLIYWASTRVSGVPDRFTGSGSGTDFTLTISRVQAEDLAVYYCHQYFSSFTFGSGTKLEIKR | 20 | 0.0014 | 70000
IgG1-CD63 affinity variant LV49H (antibody, V domains shown, As m1 with one histidine substitution in the light chain) VH: EVQLQQSGPELVKPGASVKMSCKASGYTFTSYVMHWVRQTPGQGLEWIGYITPYNDGTKYNEKFKGKATLTSDKSSSTAYMELSSLTSEDSAVYYCVGGDNYYYAMDYWGQGTSVTVSA VL: NIMVTQSPSSLAVSAGEKVTMSCKSSQSHLYSSNQKNYLAWYQQKPGQSPKLLIYWASTRVSGVPDRFTGSGSGTDFTLTISRVQAEDLAVYYCHQYFSSFTFGSGTKLEIKR | 27 | – | –
IgG1-CD63 affinity variant T71H (antibody, V domains shown) VH: EVQLQQSGPELVKPGASVKMSCKASGYTFTSYVMHWVRQTPGQGLEWIGYIHPYNDGTKYNEKFKGKATLTSDKSSSTAYMELSSLTSEDSAVYYCVGGDNYYYAMDYWGQGTSVTVSA VL: NIMVTQSPSSLAVSAGEKVTMSCKSSQSVLYSSNQKNYLAWYQQKPGQSPKLLIYWASTRVSGVPDRFTGSGSGTDFTLTISRVQAEDLAVYYCHQYFSSFTFGSGTKLEIKR | 7.3 | 0.0011 | 150000
IgG1-CD63 affinity variant LQ47 (antibody, V domains shown, As m1 with one histidine substitution in the light chain) VH: EVQLQQSGPELVKPGASVKMSCKASGYTFTSYVMHWVRQTPGQGLEWIGYITPYNDGTKYNEKFKGKATLTSDKSSSTAYMELSSLTSEDSAVYYCVGGDNYYYAMDYWGQGTSVTVSA VL: NIMVTQSPSSLAVSAGEKVTMSCKSSHSVLYSSNQKNYLAWYQQKPGQSPKLLIYWASTRVSGVPDRFTGSGSGTDFTLTISRVQAEDLAVYYCHQYFSSFTFGSGTKLEIKR | 0.37 | 6.7e-05 | 180000
IgG1-CD63 affinity variant G76H (antibody, V domains shown, As m1 with one histidine substitution) VH: EVQLQQSGPELVKPGASVKMSCKASGYTFTSYVMHWVRQTPGQGLEWIGYITPYNDHTKYNEKFKGKATLTSDKSSSTAYMELSSLTSEDSAVYYCVGGDNYYYAMDYWGQGTSVTVSA VL: NIMVTQSPSSLAVSAGEKVTMSCKSSQSVLYSSNQKNYLAWYQQKPGQSPKLLIYWASTRVSGVPDRFTGSGSGTDFTLTISRVQAEDLAVYYCHQYFSSFTFGSGTKLEIKR | 17 | 0.00038 | 22000
IgG1-CD63N74H (antibody, V domains shown, also called anti-CD63-N74H) VH: EVQLQQSGPELVKPGASVKMSCKASGYTFTSYVMHWVRQTPGQGLEWIGYITPYHDGTKYNEKFKGKATLTSDKSSSTAYMELSSLTSEDSAVYYCVGGDNYYYAMDYWGQGTSVTVSA VL: NIMVTQSPSSLAVSAGEKVTMSCKSSQSVLYSSNQKNYLAWYQQKPGQSPKLLIYWASTRVSGVPDRFTGSGSGTDFTLTISRVQAEDLAVYYCHQYFSSFTFGSGTKLEIKR | 4.1 | 0.00069 | 170000
IgG1-CD63 affinity variant LS52 (antibody, V domains shown, As m1 with one histidine substitution in the light chain) VH: EVQLQQSGPELVKPGASVKMSCKASGYTFTSYVMHWVRQTPGQGLEWIGYITPYNDGTKYNEKFKGKATLTSDKSSSTAYMELSSLTSEDSAVYYCVGGDNYYYAMDYWGQGTSVTVSA VL: NIMVTQSPSSLAVSAGEKVTMSCKSSQSVLYHSNQKNYLAWYQQKPGQSPKLLIYWASTRVSGVPDRFTGSGSGTDFTLTISRVQAEDLAVYYCHQYFSSFTFGSGTKLEIKR | 0.36 | 6.3e-05 | 170000
IgG1-CD63 affinity variant Y46 (antibody, V domains shown, As m1 with one histidine substitution) VH: EVQLQQSGPELVKPGASVKMSCKASGHTFTSYVMHWVRQTPGQGLEWIGYITPYNDGTKYNEKFKGKATLTSDKSSSTAYMELSSLTSEDSAVYYCVGGDNYYYAMDYWGQGTSVTVSA VL: NIMVTQSPSSLAVSAGEKVTMSCKSSQSVLYSSNQKNYLAWYQQKPGQSPKLLIYWASTRVSGVPDRFTGSGSGTDFTLTISRVQAEDLAVYYCHQYFSSFTFGSGTKLEIKR | 0.78 | 0.00016 | 200000
IgG1-CD63 affinity variant Y127 (antibody, V domains shown, As m1 with one histidine substitution) VH: EVQLQQSGPELVKPGASVKMSCKASGYTFTSYVMHWVRQTPGQGLEWIGYITPYNDGTKYNEKFKGKATLTSDKSSSTAYMELSSLTSEDSAVYYCVGGDNYYYAMDHWGQGTSVTVSA VL: NIMVTQSPSSLAVSAGEKVTMSCKSSQSVLYSSNQKNYLAWYQQKPGQSPKLLIYWASTRVSGVPDRFTGSGSGTDFTLTISRVQAEDLAVYYCHQYFSSFTFGSGTKLEIKR | 0.54 | 0.00011 | 200000
IgG1-CD63 affinity variant LY51H (antibody, V domains shown, As m1 with one histidine substitution in the light chain) VH: EVQLQQSGPELVKPGASVKMSCKASGYTFTSYVMHWVRQTPGQGLEWIGYITPYNDGTKYNEKFKGKATLTSDKSSSTAYMELSSLTSEDSAVYYCVGGDNYYYAMDYWGQGTSVTVSA VL: NIMVTQSPSSLAVSAGEKVTMSCKSSQSVLHSSNQKNYLAWYQQKPGQSPKLLIYWASTRVSGVPDRFTGSGSGTDFTLTISRVQAEDLAVYYCHQYFSSFTFGSGTKLEIKR | 20 | 0.0019 | 98000
anti-CD63-LN54H (antibody, V domains shown) VH: EVQLQQSGPELVKPGASVKMSCKASGYTFTSYVMHWVRQTPGQGLEWIGYITPYNDGTKYNEKFKGKATLTSDKSSSTAYMELSSLTSEDSAVYYCVGGDNYYYAMDYWGQGTSVTVSA VL: NIMVTQSPSSLAVSAGEKVTMSCKSSQSVLYSSHQKNYLAWYQQKPGQSPKLLIYWASTRVSGVPDRFTGSGSGTDFTLTISRVQAEDLAVYYCHQYFSSFTFGSGTKLEIKR | 2 | 0.00039 | 190000

target: T1, recombinant human CD63 second …; test: ELISA: antibody (1 µg/mL) captured on goat anti-human IgG, recombinant human His-tagged CD63 serially diluted (x axis, µg/mL CD63), detected with anti-poly-histidine-biotin, OD 405 nm
Text: To improve efficacy of ADCs, a bispecific ADC was generated that specifically binds to a target protein (T) with one Fab-arm, while its second Fab-arm binds an effector protein (E), that facilitates internalization and lysosomal delivery of the cytotoxic payload. The resulting bsADC should induce cytotoxicity in cells that express both T and E. Some cytotoxicity may also be induced in cells that express T but not E, whereas the bsADC should not induce cytotoxicity in cells that express E but not TCD63 is used as effector protein (E). To ensure tumor specificity of the bsAb, the anti-CD63 arm (E) of the bsAb should preferably not bind and internalize in the absence of the tumor-specific arm (T) or only do this to a very limited degree. […] In short, ELISA plates (Greiner) were coated overnight at 4° C. with 0.8 μg/mL goat anti-human IgG (Jackson). […] Serially diluted (1-0.0005 μg/mL) recombinant human CD63 (Creative Biomart) was added followed by 1 μg/mL mouse anti-poly-histidine-biotin (R&D). The reaction was visualized using ABTS and stopped with oxalic acid. […] at 405 nm was measured and depicted using Graph Pad Prism 6 software.

Binder | EC50 (read off the curve) [µg/mL]
wild type IgG1-CD63 (antibody, V domains shown, Mouse 2192 variable domains on human IgG1 constant domains (heavy chain with K409R or F405L) and a human light chain constant domain; also called wt IgG1-CD63; WT) VH: EVQLQQSGPELVKPGASVKMSCKASGYTFTSYVMHWVRQTPGQGLEWIGYITPYNDGTKYNEKFKGKATLTSDKSSSTAYMELSSLTSEDSAVYYCVGGDNYYYAMDYWGQGTSVTVSA VL: NIMVTQSPSSLAVSAGEKVTMSCKSSQSVLYSSNQKNYLAWYQQKPGQSPKLLIYWASTRVSGVPDRFTGSGSGTDFTLTISRVQAEDLAVYYCHQYFSSFTFGSGTKLEIKR | ~0.01
IgG1-CD63N74H (antibody, V domains shown, also called anti-CD63-N74H) VH: EVQLQQSGPELVKPGASVKMSCKASGYTFTSYVMHWVRQTPGQGLEWIGYITPYHDGTKYNEKFKGKATLTSDKSSSTAYMELSSLTSEDSAVYYCVGGDNYYYAMDYWGQGTSVTVSA VL: NIMVTQSPSSLAVSAGEKVTMSCKSSQSVLYSSNQKNYLAWYQQKPGQSPKLLIYWASTRVSGVPDRFTGSGSGTDFTLTISRVQAEDLAVYYCHQYFSSFTFGSGTKLEIKR | ~0.06
